For data set [1], the target named is T1, SCOV1 nsp1 (SARS coronavirus 1 (Urbani strain), UniProt P0C6X7 1-180). The experiment in a line: EMSA. The settings on record: protein: recombinant; tags: expressed as GST fusion (pGEX); untagged 19 kDa form described, tag state in EMSA not explicit; label: biotin; stem-loop (-6.83 kcal/mol, RNAfold). A general note: A gel shift assay detects complexes by their altered migration in electrophoresis.

Data set [2] addresses T2, SCOV2 nsp1 (SARS coronavirus 2, UniProt P0DTD1 1-180). The experiment in a line: EMSA. As to conditions: protein: recombinant; tags: expressed as GST fusion (pGEX); label: biotin; hairpin.
The target in data set [3] is T1, SCOV1 nsp1. The experiment in a line: EMSA; prefolded RNA; S and L complexes, n=4. The settings on record: protein: recombinant; tags: expressed as GST fusion (pGEX); untagged 19 kDa form described, tag state in EMSA not explicit; label: biotin; hairpin.
Data set [4] deals with T1, SCOV1 nsp1. The experiment in a line: EMSA; 7 uM nsp1; slow-moving complex. As to conditions: protein: recombinant; tags: expressed as GST fusion (pGEX); untagged 19 kDa form described, tag state in EMSA not explicit; label: biotin; hairpin.
The target of data set [5] is T2, SCOV2 nsp1. The experiment in a line: EMSA; 7 uM nsp1. The settings on record: protein: recombinant; tags: expressed as GST fusion (pGEX); label: biotin; hairpin.
The data set “pull-down” deals with the molecule itself. The experiment in a line: pull-down.

With UCCUGCUUCAACAGUGCUUGGACGGAAC (structured_RNA) [control RNA (EMSA kit)], in the data set with SCOV1 nsp1 [1], the binding result was “no binding”. A word on the Kd: it is the free concentration of one partner at which half of the binding sites on the other are occupied at equilibrium, for simple one-to-one binding. For the molecule AUAUUAGGUUUUUACCUACCCAGGAAAAGCCAACCAACCUCGAU (structured_RNA) [SCOV1-SL1], the binding result in the data set with SCOV2 nsp1 [2] is on record as “binds”. Also, in the data set with SCOV1 nsp1 [3], the Kd was 1400 ± 120 nM. For the molecule AUUAAAGGUUUAUACCUUCCCAGGUAACAAAACCAACCAACUUUC (structured_RNA) [SCOV2-SL1], the binding result in the data set with SCOV1 nsp1 [4] and in the data set with SCOV2 nsp1 [5] was “binds” in each case.

B1: SARS coronavirus 1 nonstructural protein 1 (nsp1) (natural protein)
chain: MESLVLGVNEKTHVQLSLPVLQVRDVLVRGFGDSVEEALSEAREHLKNGTCGLVELEKGVLPQLEQPYVFIKRSDALSTNHGHKVVELVAEMDGIQYGRSGITLGVLVPHVGETPIAYRNVLLRKNGNKGAGGHSYGIDLKSYDLGDELGTDPIEDYEQNWNTKHGSGALRELTRELNGG
Turning to B1, the binding result in the data set “pull-down” was “binds”.

The values are drawn from article PMC11112752 (Biochemistry, 2024).
